Measurements as given in US20200306373A1 (Hoffmann-La Roche, published 2020).

T1: murine ICOS (murine, UniProt Q9WVS0 21-200)
T1 sequence: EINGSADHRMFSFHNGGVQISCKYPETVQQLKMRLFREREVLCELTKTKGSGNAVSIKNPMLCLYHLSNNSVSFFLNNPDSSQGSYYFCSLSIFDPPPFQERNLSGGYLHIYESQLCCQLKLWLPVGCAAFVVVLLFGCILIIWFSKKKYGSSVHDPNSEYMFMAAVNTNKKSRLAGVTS

T2: human ICOS (human, UniProt Q9Y6W8 21-199)
T2 sequence: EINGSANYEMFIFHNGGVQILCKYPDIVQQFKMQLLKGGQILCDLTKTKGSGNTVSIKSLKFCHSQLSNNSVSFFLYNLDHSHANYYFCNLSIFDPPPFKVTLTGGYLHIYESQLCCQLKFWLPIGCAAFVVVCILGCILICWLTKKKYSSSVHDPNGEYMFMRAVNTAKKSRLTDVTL

T3: human CEA (human, UniProt P06731 35-685)
T3 construct: Endogenous CEA on MKN45 human gastric adenocarcinoma cells; also called Carcinoembryonic antigen; CEACAM5
T3 sequence: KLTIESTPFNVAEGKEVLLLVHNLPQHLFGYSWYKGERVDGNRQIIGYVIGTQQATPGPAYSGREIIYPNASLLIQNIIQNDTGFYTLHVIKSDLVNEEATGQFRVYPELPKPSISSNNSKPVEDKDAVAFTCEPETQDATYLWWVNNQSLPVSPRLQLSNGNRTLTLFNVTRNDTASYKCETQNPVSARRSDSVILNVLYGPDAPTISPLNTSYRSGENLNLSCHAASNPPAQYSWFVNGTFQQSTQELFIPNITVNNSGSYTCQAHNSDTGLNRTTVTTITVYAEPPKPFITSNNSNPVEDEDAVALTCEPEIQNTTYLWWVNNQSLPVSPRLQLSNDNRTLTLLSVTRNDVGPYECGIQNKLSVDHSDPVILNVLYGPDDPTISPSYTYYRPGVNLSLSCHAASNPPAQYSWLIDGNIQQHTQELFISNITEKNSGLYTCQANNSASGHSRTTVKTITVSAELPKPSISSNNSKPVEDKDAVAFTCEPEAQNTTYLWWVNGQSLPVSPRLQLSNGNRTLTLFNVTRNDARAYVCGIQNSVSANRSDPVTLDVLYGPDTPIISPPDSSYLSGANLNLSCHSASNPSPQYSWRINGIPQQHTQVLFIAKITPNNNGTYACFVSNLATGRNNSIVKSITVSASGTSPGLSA

B1: ICOS(16E09)-FAP(28H1) 1+1, FAP-targeted anti-murine ICOS_1+1, mIgG1 DAPG, monovalent murine ICOS (16E09), monovalent FAP (28H1) (bispecific antibody)
heavy 1: EVQLVQSGAEVKKPGESLKISCKGSGYSFTSYWIGWVRQMPGKGLEWMGIIYPGDSDTRYSPSFQGQVTISADKSISTAYLQWSSLKASDTAMYYCARSSGPYGLYLDYWGQGTLVTVSSAKTTPPSVYPLAPGSAAQTNSMVTLGCLVEGYFPEPVTVTWNSGSLSSGVHTFPAVLQSDLYTLSSSVTVPSSTWPSQTVTCNVAHPASSTKVDEKIVPRDCGCKPCICTVPEVSSVFIFPPKPKDVLTITLTPKVTCVVVAISKDDPEVQFSWFVDDVEVHTAQTKPREEQINSTFRSVSELPIMHQDWLNGKEFKCRVNSAAFGAPIEKTISKTKGRPKAPQVYTIPPPKEQMAKDKVSLTCMITNFFPEDITVEWQWNGQPAENYDNTQPIMDTDGSYFVYSDLNVQKSNWEAGNTFTCSVLHEGLHNHHTEKSLSHSP
heavy 2: EIVLTQSPGTLSLSPGERATLSCRASQSVSRSYLAWYQQKPGQAPRLLIIGASTRATGIPDRFSGSGSGTDFTLTISRLEPEDFAVYYCQQGQVIPPTFGQGTKVEIKSSAKTTPPSVYPLAPGSAAQTNSMVTLGCLVKGYFPEPVTVTWNSGSLSSGVHTFPAVLQSDLYTLSSSVTVPSSTWPSQTVTCNVAHPASSTKVDKKIVPRDCGCKPCICTVPEVSSVFIFPPKPKDVLTITLTPKVTCVVVAISKDDPEVQFSWFVDDVEVHTAQTKPREEQINSTFRSVSELPIMHQDWLNGKEFKCRVNSAAFGAPIEKTISKTKGRPKAPQVYTIPPPKKQMAKDKVSLTCMITNFFPEDITVEWQWNGQPAENYKNTQPIMKTDGSYFVYSKLNVQKSNWEAGNTFTCSVLHEGLHNHHTEKSLSHSP
light 1: not shown
light 2: EVQLLESGGGLVQPGGSLRLSCAASGFTFSSHAMSWVRQAPGKGLEWVSAIWASGEQYYADSVKGRFTISRDNSKNTLYLQMNSLRAEDTAVYYCAKGWLGNFDYWGQGTLVTVSSASDAAPTVSIFPPSSEQLTSGGASVVCFLNNFYPKDINVKWKIDGSERQNGVLNSWTDQDSKDSTYSMSSTLTLTKDEYERHNSYTCEATHKTSTSPIVKSFNRNEC
notes: Murine IgG1 DAPG DDKK; also called ICOS(16E09)-FAP(28H1) 1 + 1 muIgG1 DAPG
B2: FAP-ICOS_1+1, huIgG1 P329G LALA, monovalent ICOS (JMAb136), monovalent FAP (4B9) (bispecific antibody)
heavy 1: not shown
light 1: DIQMTQSPSSVSASVGDRVTITCRASQGISRLLAWYQQKPGKAPKLLIYVASSLQSGVPSRFSGSGSGTDFTLTISSLQPEDFATYYCQQANSFPWTFGQGTKVEIKRTVAAPSVFIFPPSDRKLKSGTASVVCLLNNFYPREAKVQWKVDNALQSGNSQESVTEQDSKDSTYSLSSTLTLSKADYEKHKVYACEVTHQGLSSPVTKSFNRGEC
heavy 2: EIVLTQSPGTLSLSPGERATLSCRASQSVTSSYLAWYQQKPGQAPRLLINVGSRRATGIPDRFSGSGSGTDFTLTISRLEPEDFAVYYCQQGIMLPPTFGQGTKVEIKSSASTKGPSVFPLAPSSKSTSGGTAALGCLVKDYFPEPVTVSWNSGALTSGVHTFPAVLQSSGLYSLSSVVTVPSSSLGTQTYICNVNHKPSNTKVDKKVEPKSCDKTHTCPPCPAPEAAGGPSVFLFPPKPKDTLMISRTPEVTCVVVDVSHEDPEVKFNWYVDGVEVHNAKTKPREEQYNSTYRVVSVLTVLHQDWLNGKEYKCKVSNKALGAPIEKTISKAKGQPREPQVCTLPPSRDELTKNQVSLSCAVKGFYPSDIAVEWESNGQPENNYKTTPPVLDSDGSFFLVSKLTVDKSRWQQGNVFSCSVMHEALHNHYTQKSLSLSP
light 2: EVQLLESGGGLVQPGGSLRLSCAASGFTFSSYAMSWVRQAPGKGLEWVSAIIGSGASTYYADSVKGRFTISRDNSKNTLYLQMNSLRAEDTAVYYCAKGWFGGFNYWGQGTLVTVSSASVAAPSVFIFPPSDEQLKSGTASVVCLLNNFYPREAKVQWKVDNALQSGNSQESVTEQDSKDSTYSLSSTLTLSKADYEKHKVYACEVTHQGLSSPVTKSFNRGEC
notes: also called ICOS-FAP 1+1; ICOS(JMab136)-FAP(4B9) 1 + 1
B3: ICOS(JMab136)-CEA(MEDI-565) 2+1, CEA-ICOS_2+1 huIgG1 P329G LALA, bivalent ICOS (JMAb136), monovalent CEA (MEDI-565) (bispecific antibody)
heavy 1: not shown
heavy 2: not shown
light: B2 light 1
notes: Human IgG1 P329G LALA, knob-into-hole; also called CEA(MEDI565)-ICOS(JMAb136)_2 + 1
B4: ICOS(JMab136)-CEA(MEDI-565) 1+1, CEA-ICOS_1+1, huIgG1 P329G LALA, monovalent ICOS (JMAb136), monovalent CEA (MEDI-565) (bispecific antibody)
heavy 1: not shown
light 1: B2 light 1
heavy 2: not shown
light 2: EVQLVESGGGLVQPGRSLRLSCAASGFTVSSYWMHWVRQAPGKGLEWVGFIRNKANGGTTEYAASVKGRFTISRDDSKNTLYLQMNSLRAEDTAVYYCARDRGLRFYFDYWGQGTTVTVSSASVAAPSVFIFPPSDEQLKSGTASVVCLLNNFYPREAKVQWKVDNALQSGNSQESVTEQDSKDSTYSLSSTLTLSKADYEKHKVYACEVTHQGLSSPVTKSFNRGEC
notes: Human IgG1 P329G LALA, knob-into-hole; also called CEA(MEDI565)-ICOS(JMAb136)_1 + 1

Columns and labels:
murine ICOS [1] = molecular target: T1, murine ICOS; test: cell-based or functional assay
murine FAP (mFAP) [2] = molecular target: T4, murine FAP (mFAP) (murine, UniProt P97321 1-761); test: flow cytometry on NIH/3T3-moFAP cl.34 cells
T4 construct: Expressed on 3T3-mFAP / NIH/3T3-moFAP cl.34 cells; also called mouse FAP; moFAP
T4 sequence (P97321 whole entry): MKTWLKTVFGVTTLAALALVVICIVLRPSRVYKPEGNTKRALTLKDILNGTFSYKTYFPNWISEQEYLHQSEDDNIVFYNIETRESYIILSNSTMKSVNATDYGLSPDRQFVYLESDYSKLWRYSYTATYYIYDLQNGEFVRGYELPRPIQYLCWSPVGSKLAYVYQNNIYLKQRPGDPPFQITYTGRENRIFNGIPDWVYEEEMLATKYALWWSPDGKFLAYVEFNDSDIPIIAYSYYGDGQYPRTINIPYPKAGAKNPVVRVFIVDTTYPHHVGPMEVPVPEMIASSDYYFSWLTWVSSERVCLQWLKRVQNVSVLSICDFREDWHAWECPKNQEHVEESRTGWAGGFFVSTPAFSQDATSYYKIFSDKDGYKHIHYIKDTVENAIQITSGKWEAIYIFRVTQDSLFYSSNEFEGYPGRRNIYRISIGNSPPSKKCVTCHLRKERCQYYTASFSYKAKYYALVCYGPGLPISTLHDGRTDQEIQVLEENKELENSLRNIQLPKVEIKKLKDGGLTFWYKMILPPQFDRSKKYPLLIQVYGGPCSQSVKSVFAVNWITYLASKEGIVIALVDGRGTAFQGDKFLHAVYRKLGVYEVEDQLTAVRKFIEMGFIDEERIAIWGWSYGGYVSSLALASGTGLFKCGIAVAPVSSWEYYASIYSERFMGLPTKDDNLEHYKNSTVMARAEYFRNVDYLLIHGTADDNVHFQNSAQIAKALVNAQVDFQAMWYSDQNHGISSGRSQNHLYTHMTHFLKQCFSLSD
Experimental: (§1) Briefly, adherent MKN45, NIH/3T3-moFAP or CHO-mICOS cells were detached using trypsin (Gibco, 25300-054), washed and 0.1 million cells were transferred into a 96-round bottom well-plate. […] Thereafter, cells were washed twice with cold PBS 0.1% BSA and further incubated for further 30 min at 4° C. with a labeled secondary antibody (PE-conjugated, #715-116-150 from Jackson Immuno Research Lab, diluted 1 to 50 in FACS buffer). Cells were washed with FACS buffer and the staining was fixed for 20 min at 4° C. in the dark, using 75 μl of 1% PFA in FACS buffer per well. Cells were washed twice with FACS Buffer and re-suspended in FACS Buffer for analysis.
(§2) Fluorescence was analyzed by FACS using a FACS Fortessa (Software FACS Diva). Binding curves and EC₅₀ values were obtained using GraphPadPrism6.

murine ICOS [3] = molecular target: T1, murine ICOS; test: flow cytometry on CHO cells expressing murine ICOS
Experimental: as §1, §2

murine FAP (mFAP) [4] = molecular target: T4, murine FAP (mFAP); test: flow cytometry on NIH/3T3-moFAP cells stably overexpressing murine FAP, PE secondary, axis % Binding to murine FAP
Experimental: as §1, §2

human ICOS [5] = molecular target: T2, human ICOS; test: cell-based or functional assay
[6] = molecular target: T5, human fibroblast activating protein (huFAP) (human, UniProt Q12884 1-760); test: flow cytometry on NIH/3T3-huFAP clone 19 cells
T5 construct: Expressed on NIH/3T3-huFAP clone 19 cells; also called human FAP; hFAP
Experimental: (§3) This cell line was generated by the transfection of the mouse embryonic fibroblast NIH/3T3 cell line (ATCC CRL-1658) with the expression vector pETR4921 to express huFAP under […] Puromycin selection.
(§4) The staining was fixed for 20 min at 4° C. in the dark, using 75 μl of 1% PFA in FACS buffer per well. Fluorescence was analyzed by FACS using a FACS Fortessa (Software FACS Diva). Binding curves were obtained using GraphPadPrism6 and are shown in FIGS. 6A-6C and 7A-7B, respectively.

human ICOS [7] = molecular target: T2, human ICOS; test: flow cytometry, activated human PBMCs, ICOS on CD4+ T cells
human ICOS [8] = molecular target: T2, human ICOS; test: flow cytometry, activated human PBMCs, ICOS on CD8+ T cells
[9] = molecular target: T5, human fibroblast activating protein …; test: flow cytometry on NIH/3T3-huFAP clone 19 cells (human FAP), PE anti-human secondary, median fluorescence intensity
Experimental: as §3, §4

human CEA = molecular target: T3, human CEA; test: flow cytometry on MKN45 cells (human CEA), Alexa Fluor 647 anti-human Fc secondary, frequency of A647+ cells
Experimental: Briefly, human PBMCs, isolated from either Buffy Coats or fresh blood from healthy human donors (as described in Example 5.1) were incubated in a humidified incubator at 37° C. for 48 hours in RPMI1640 medium including […] PHA-L (Roche, #11249738001) and 100 units/ml recombinant human IL-2 (“Proleukin”, Novartis) at a cell density of 1 million cells per ml.
At the day of the assay, pre-activated PBMCs cells were harvested, washed with PBS, and 0.2 million cells in FACS buffer (PBS with 0.1% BSA) were plated per well of a 96-round bottom-well plate. Likewise, adherent MKN45 tumor cells were detached using trypsin (Gibco, 25300-054), washed and 0.15 million cells were transferred into the 96-round bottom well-plate. […] Cells were washed with FACS buffer and the staining was fixed for 20 min at 4° C. in the dark, using 75 µl of 1% PFA in FACS buffer per well. Cells were washed again two times with FACS Buffer and re-suspended in FACS Buffer for analysis.
as §2

| Binder | Fold increase vs TCB only at 3 nM CEA- or FAP-ICOS, % CD69^+CD4^+ (murine ICOS [1]) [fold] | Fold increase vs TCB only at 3 nM CEA- or FAP-ICOS, % CD69^+CD8^+ (murine ICOS [1]) [fold] | Fold increase vs TCB only at 75 nM CEA- or FAP-ICOS, % CD69^+CD4^+ (murine ICOS [1]) [fold] | Fold increase vs TCB only at 75 nM CEA- or FAP-ICOS, % CD69^+CD8^+ (murine ICOS [1]) [fold] | EC50 (murine FAP (mFAP) [2]) [nM] | EC50 (murine ICOS [3]) [nM] | EC50 (read off the curve) (murine FAP (mFAP) [4]) [nM] | Fold increase vs TCB only at 200 pM CEA-ICOS (% CD69^+CD4^+), Donor 1 (D1) (human ICOS [5]) [fold] | Fold increase vs TCB only at 200 pM CEA-ICOS (% CD69^+CD4^+), Donor 2 (D2) (human ICOS [5]) [fold] | Fold increase vs TCB only at 1000 pM CEA-ICOS (% CD69^+CD4^+), Donor 1 (D1) (human ICOS [5]) [fold] | Fold increase vs TCB only at 1000 pM CEA-ICOS (% CD69^+CD4^+), Donor 2 (D2) (human ICOS [5]) [fold] | EC50 [6] [nM] | EC50 (human ICOS [7]) [nM] | EC50 (human ICOS [8]) [nM] | EC50 (read off the curve) [9] [nM] | EC50 (read off the curve) (human CEA) [nM] |
| --- | --- | --- | --- | --- | --- | --- | --- | --- | --- | --- | --- | --- | --- | --- | --- | --- |
| B1 | 1.2 | 1.9 | 1.2 | 1.9 | 0.142 | 17.1 | ~0.1 | – | – | – | – | – | – | – | – | – |
| B2 | – | – | – | – | – | – | – | 2.5 | 1.5 | 2.65 | 1.68 | 2.98 | 34.9 | 50.7 | ~3 | – |
| B3 | – | – | – | – | – | – | – | 5.17 | 2.86 | 5.52 | 1.99 | – | – | – | – | ~0.5 |
| B4 | – | – | – | – | – | – | – | 4.99 | 2.91 | 5.95 | 2.47 | – | – | – | – | ~0.05 |
